From article PMC7935953, “Insights on autophagosome–lysosome tethering from structural and biochemical characterization of human autophagy factor EPG5” (Communications Biology, 2021)

Legend:
Settings in all cases: both partners purified
[1] = biological target: His-LC3A (human, UniProt Q9H492 1-121); assay: ITC; 0.6 mM peptide titrated into 0.06 mM His-LC3/GABARAP protein in 20 steps at 25 °C; 50 mM Tris pH 7.0, 25 mM NaCl; one-site binding model
[2] = biological target: His-GABARAP (human, UniProt O95166 1-117); assay: as above
[3] = biological target: His-GABARAPL1 (human, UniProt Q9H0R8 1-117); assay: as above
Sequence of His-GABARAPL1 (Q9H0R8 whole entry): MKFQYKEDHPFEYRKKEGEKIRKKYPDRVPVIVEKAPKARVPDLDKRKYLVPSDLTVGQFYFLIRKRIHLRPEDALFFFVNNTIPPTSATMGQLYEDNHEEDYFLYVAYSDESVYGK

[4] = biological target: His-GABARAPL2 (human, UniProt P60520 1-117); assay: as above
Sequence of His-GABARAPL2 (P60520 whole entry): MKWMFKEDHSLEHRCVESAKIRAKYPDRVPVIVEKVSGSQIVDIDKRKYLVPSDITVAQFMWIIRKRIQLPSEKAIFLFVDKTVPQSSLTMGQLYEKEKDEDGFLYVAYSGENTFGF

[5] = biological target: His-LC3B (human, UniProt Q9GZQ8 1-120); assay: as above
[6] = biological target: T1, His-FLAG-hEPG5 (human EPG5, full length, wild type) (human, UniProt Q9HCE0 1-2579); assay: pull-down; co-purification: His-FLAG-hEPG5 bound to Ni-NTA resin, GST-GABARAP applied, washed, eluted with imidazole; 50 mM Na phosphate pH 7.4, 150 mM NaCl, 0.01% TWEEN 20, 5% glycerol; complex seen on SDS-PAGE and by negative stain EM 2D class averages
T1 construct: His-FLAG tag from a modified pFastBacHTB; also called hEPG5^WT; ectopic P-granules autophagy protein 5
T1 sequence (Q9HCE0 whole entry): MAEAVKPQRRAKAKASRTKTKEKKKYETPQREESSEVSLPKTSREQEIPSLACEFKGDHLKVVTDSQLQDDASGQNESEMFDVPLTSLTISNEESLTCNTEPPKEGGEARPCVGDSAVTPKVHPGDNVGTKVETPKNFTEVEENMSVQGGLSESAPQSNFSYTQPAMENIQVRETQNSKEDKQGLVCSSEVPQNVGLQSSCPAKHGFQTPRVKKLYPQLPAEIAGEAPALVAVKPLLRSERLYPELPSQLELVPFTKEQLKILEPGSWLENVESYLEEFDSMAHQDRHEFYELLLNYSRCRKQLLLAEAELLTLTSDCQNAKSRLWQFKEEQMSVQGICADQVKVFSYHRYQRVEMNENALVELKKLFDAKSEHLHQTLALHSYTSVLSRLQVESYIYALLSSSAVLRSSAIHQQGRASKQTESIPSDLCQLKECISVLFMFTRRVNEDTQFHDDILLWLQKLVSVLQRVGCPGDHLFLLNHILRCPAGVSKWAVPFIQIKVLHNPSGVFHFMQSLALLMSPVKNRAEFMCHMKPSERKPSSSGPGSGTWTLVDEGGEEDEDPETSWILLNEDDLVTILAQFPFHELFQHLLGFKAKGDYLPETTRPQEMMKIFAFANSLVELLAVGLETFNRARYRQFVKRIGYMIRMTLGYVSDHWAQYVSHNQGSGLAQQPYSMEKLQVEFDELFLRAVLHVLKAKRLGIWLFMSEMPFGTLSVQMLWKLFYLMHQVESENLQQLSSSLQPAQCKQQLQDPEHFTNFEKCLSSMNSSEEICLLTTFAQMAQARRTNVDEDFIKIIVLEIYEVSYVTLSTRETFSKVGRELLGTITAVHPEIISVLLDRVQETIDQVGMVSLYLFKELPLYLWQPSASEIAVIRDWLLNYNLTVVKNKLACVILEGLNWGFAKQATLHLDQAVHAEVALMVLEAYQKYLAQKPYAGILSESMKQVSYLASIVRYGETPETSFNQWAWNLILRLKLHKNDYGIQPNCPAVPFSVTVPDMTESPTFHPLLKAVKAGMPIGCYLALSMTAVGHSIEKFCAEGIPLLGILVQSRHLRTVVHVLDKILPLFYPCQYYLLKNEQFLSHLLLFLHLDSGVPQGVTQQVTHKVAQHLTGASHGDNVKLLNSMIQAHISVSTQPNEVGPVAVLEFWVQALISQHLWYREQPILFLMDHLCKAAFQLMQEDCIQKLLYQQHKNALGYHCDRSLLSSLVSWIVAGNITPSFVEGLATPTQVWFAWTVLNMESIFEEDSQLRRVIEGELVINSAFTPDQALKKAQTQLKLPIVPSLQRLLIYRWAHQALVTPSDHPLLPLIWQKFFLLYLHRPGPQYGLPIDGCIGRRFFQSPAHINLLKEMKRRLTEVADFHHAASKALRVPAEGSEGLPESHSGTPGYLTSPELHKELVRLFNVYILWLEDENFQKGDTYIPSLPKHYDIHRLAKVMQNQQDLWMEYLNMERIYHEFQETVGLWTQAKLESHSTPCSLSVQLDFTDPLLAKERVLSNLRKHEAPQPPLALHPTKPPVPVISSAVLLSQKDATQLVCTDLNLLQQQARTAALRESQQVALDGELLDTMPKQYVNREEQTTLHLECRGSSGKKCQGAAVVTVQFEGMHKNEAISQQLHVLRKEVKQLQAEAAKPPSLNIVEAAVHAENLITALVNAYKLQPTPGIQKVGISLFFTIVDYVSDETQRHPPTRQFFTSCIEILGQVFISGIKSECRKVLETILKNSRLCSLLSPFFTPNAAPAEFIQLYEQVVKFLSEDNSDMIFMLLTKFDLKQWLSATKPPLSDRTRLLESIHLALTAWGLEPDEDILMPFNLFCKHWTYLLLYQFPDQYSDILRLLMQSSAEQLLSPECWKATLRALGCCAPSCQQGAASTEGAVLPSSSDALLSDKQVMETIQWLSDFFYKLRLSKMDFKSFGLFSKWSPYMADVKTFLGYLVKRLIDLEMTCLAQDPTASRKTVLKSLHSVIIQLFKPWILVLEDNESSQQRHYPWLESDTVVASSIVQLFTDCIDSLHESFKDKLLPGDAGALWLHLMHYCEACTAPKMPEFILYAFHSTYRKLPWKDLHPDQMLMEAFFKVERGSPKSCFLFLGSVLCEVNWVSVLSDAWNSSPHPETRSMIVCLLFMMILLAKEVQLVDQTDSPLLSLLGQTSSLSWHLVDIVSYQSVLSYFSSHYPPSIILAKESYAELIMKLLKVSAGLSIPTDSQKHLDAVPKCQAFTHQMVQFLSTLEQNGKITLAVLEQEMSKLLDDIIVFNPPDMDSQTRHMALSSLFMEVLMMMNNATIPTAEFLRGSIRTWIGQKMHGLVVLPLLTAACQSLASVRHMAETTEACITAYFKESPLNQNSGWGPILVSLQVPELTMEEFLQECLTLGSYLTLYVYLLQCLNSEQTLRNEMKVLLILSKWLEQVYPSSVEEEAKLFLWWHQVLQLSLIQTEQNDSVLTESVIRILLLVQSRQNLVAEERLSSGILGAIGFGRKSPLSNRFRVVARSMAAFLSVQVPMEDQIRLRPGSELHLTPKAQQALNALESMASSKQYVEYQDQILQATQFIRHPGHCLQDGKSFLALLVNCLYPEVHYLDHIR

[7] = biological target: T2, hEPG5^Δ1770–2579 (human, UniProt Q9HCE0 1-1769); assay: pull-down; GST pull-down: purified GST-LC3A/B/C or GST-GABARAP/L1/L2 bait (200–240 µg) on glutathione resin, purified His-FLAG-hEPG5 or mutant (25–30 µg) as prey; 50 mM Tris pH 8.0, 150 mM NaCl, 5% glycerol, 0.01% Tween20, 0.5 mM DTT, 4 °C; anti-FLAG fluorescence western blot
T2 construct: also called truncated hEPG5 lacking the entire C-terminal region

[8] = biological target: T3, hEPG5^Δ1–548 (human, UniProt Q9HCE0 549-2579); assay: as above
T3 construct: also called truncated hEPG5 devoid of the region between the N-terminus and the two LIR motifs
T3 sequence (Q9HCE0 549-2579, stated change not applied): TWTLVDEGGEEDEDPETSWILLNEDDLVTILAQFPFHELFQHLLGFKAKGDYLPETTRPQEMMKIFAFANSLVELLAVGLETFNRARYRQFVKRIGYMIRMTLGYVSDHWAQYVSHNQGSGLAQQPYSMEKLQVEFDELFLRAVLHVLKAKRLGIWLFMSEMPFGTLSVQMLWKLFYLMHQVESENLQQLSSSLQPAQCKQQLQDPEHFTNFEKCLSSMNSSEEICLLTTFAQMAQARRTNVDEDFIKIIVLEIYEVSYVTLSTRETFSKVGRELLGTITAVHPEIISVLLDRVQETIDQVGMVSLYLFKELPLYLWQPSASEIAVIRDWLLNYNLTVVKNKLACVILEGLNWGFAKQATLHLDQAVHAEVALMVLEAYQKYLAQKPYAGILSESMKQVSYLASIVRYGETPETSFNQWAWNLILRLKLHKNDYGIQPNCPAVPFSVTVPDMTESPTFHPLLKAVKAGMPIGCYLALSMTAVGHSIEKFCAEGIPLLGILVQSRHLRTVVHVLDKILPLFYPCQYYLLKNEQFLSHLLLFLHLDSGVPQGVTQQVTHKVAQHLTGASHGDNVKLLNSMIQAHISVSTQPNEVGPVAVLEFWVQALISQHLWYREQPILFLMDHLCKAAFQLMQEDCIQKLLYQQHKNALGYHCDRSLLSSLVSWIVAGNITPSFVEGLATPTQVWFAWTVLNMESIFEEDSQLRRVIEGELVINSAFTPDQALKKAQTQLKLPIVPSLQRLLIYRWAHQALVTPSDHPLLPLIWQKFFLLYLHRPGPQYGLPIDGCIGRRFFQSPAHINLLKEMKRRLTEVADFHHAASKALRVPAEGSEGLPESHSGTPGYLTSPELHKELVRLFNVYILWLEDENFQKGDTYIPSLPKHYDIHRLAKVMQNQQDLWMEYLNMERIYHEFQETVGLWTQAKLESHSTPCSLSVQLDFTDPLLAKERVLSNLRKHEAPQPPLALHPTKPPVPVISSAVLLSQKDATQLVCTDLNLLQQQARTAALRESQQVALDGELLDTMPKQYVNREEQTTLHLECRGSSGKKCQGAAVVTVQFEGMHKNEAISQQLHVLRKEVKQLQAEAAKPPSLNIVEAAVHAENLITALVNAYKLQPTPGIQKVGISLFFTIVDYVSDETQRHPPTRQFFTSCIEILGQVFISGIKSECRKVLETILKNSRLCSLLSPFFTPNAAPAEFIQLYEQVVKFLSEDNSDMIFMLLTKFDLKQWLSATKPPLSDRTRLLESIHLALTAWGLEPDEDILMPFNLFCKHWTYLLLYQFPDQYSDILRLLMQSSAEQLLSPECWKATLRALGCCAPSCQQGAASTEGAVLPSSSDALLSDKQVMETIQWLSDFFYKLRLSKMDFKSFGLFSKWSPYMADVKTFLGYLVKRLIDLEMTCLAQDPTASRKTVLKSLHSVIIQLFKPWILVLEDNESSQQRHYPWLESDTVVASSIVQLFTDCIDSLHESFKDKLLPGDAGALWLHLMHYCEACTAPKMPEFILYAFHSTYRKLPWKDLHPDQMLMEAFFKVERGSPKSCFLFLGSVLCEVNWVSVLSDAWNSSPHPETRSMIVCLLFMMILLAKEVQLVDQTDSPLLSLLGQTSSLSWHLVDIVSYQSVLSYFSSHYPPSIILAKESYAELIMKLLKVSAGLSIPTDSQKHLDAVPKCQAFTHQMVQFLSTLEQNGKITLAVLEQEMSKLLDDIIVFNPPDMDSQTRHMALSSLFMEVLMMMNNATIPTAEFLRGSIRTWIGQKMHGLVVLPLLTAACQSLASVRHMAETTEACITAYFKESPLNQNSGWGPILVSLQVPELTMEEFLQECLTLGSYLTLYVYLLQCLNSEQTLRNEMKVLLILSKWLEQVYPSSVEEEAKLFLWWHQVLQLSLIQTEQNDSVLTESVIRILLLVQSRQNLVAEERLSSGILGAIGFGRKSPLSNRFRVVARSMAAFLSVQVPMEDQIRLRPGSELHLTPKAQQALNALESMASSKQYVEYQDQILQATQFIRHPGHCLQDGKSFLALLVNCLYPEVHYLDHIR

[9] = biological target: T4, hEPG5^W567A (human, UniProt Q9HCE0 1-2579, W567A); assay: as above
T4 construct: also called LIR2 mutant
T4 sequence (Q9HCE0 whole entry W567A): as the sequence (Q9HCE0 whole entry) above, with W567A counted along it

[10] = biological target: T5, hEPG5^F794A (human, UniProt Q9HCE0 1-2579, F794A); assay: as above
T5 construct: also called third LIR motif mutant
T5 sequence (Q9HCE0 whole entry F794A): as the sequence (Q9HCE0 whole entry) above, with F794A counted along it

[11] = biological target: T6, hEPG5^Q336R (human, UniProt Q9HCE0 1-2579, Q336R); assay: as above
T6 construct: human EPG5, full length, with the Vici syndrome missense mutation Q336R (c.1007A>G); also called Gln336Arg; Vici syndrome mutant
T6 sequence (Q9HCE0 whole entry Q336R): as the sequence (Q9HCE0 whole entry) above, with Q336R counted along it

B1: hEPG5-LIR1 peptide (peptide)
peptide: GSGTWTLVDEG
notes: human EPG5 residues 546-556, holding the LIR1 motif 550WTLV553; source: synthetic peptide (LifeTein)
[1]
  fold KD relative to LIR1-GABARAP: 3 times
[2]
  Kd: 7.47 µM
[3]
  Kd: 8.54 µM
[4]
  Kd: 11.8 µM

## DEDPETSWILLN (source: synthetic peptide (GenScript)) [hEPG5-LIR2 peptide]
[1]
  Kd: 1.75 µM
[5]
  Kd: 4.07 µM
[2]
  Kd: 0.16 µM
[4]
  Kd: 0.68 µM

B2: GST-GABARAP (natural protein, human, UniProt O95166 1-117, looked up)
chain: MKFVYKEEHPFEKRRSEGEKIRKKYPDRVPVIVEKAPKARIGDLDKKKYLVPSDLTVGQFYFLIRKRIHLRAEDALFFFVNNVIPPTSATMGQLYQEHHEEDFFLYIAYSDESVYGL
[6]
  binding result: binds
[7]
  binding result: binds
[8]
  binding result: binds
[9]
  binding result: binds
[10]
  binding result: binds
[11]
  binding result: binds
